Here are results for two substances from publication PMC1939876.

What all share (experiment): EMSA
Background: Mobility shift assays separate free from complexed probe on a gel.

For data set [1], the system named is VP16-6ZfFLO11/F2-F1 (engineered). The settings on record: Buffer, salt, pH and temperature not given (methods cited); phage ELISA with 0.125-32 nM DNA; EMSA with 5-fold dilution series of TNT-expressed protein.
Data set [2] deals with VP64-6ZfFLO11/F2-F1 (engineered). Particulars: Buffer, salt, pH and temperature not given (methods cited); phage ELISA with 0.125-32 nM DNA; EMSA with 5-fold dilution series of TNT-expressed protein.
The test system of data set [3] is Zif268 3F peptide. The settings on record: calibration reference; value from ref 51; Buffer, salt, pH and temperature not given (methods cited); phage ELISA with 0.125-32 nM DNA; EMSA with 5-fold dilution series of TNT-expressed protein; cited from earlier work.

One may read the Kd as the constant that tells how readily two partners part at equilibrium.

Turning to “TFLO11/F2-F1 (also called F1-F2) 31-bp oligo”, the binding signal (fold stronger than 3F rTFs) in data set [1] and in data set [2] was 10 in each case.

As for Zif268 cognate 9-bp site, the Kd in data set [3] was 2 nM.
